Assay: yeast display, Sf9 membrane polyspecificity reagent, FACS + sequencing; frameworks hold sequencing errors
Method in brief: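 Galactose induction of a Saccharomyces cerevisiae BJ5465 synthetic nanobody display library ran 36–48 hours. The cells were then stained for 1 hour at 4 °C with 10% biotinylated, detergent-solubilized Sf9 membrane reagent, pulled down on streptavidin microbeads and FACS-sorted into low and high (top ~1%) gates on expression and reagent-binding fluorescence. Labels for polyreactivity follow the gate of origin.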
In the case of “QVQLVESGGGLVQAGGSLRLSCAASGRIFYRNAMGWYRQAPGKERELVAAITWRGGSTYYADSVKGRFTISRDNAKNTVYLQMNSLKPEDTAVYYCNTRYGRIHWKANWPEYGYWGQGTQVTVSS”, the “polyreactivity (PSR sort gate)” value is reported as “low polyreactivity”.
With “QVQLVESGGGLVQAGGSLRLSCAASGRIFYRNAMGWYRQAPGKERELVASITSGGRTNYADSVKGRFTISRDNAKNTVYLQMNSLKPEDTAVYYCAAPPPYSVRTFRFYYWGQGTQVTVSS” the “polyreactivity (PSR sort gate)” value was “high polyreactivity”.
For “QVQLVESGGGLVQAGGSLRLSCAASGRIFYRNAMGWYRQAPGKERELVAVITSSSGSTYADSVKGRFTISRDNAKNTVYLQMNSLKPEDTAVYYCAAEEDYIYFYVSMDYWGQGTQVTVSS”, the “polyreactivity (PSR sort gate)” value was “low polyreactivity”.
In the case of “QVQLVESGGGLVQAGGSLRLSCAASGRIFYRNAMGWYRQAPGQERELDAGITRGGSTNYADSVKGRFTISRDNAKNTVYLQMNSLKPEDTAVYYCAKAIPAKFYSEAGYDYWGQGTQVTVSS”, the “polyreactivity (PSR sort gate)” value is reported as “low polyreactivity”.
With “QVQLVESGGGLVQAGGSLRLSCAASGRIFYRYAMGWYRQAPGKEREFVAAISGTGGSTYYADSVKGRFTISRDNAKNTVYLQMNSLKPEDTAVYYCAASVVSRPTYYAYYYWGQGTQVTVSS” the “polyreactivity (PSR sort gate)” value was “high polyreactivity”.
For “QVQLVESGGGLVQAGGSLRLSCAASGRIFYRYAMGWYRQAPGKERELVAAISRTGSRTYYADSVKGRFTISRDNAKNTVYLQMNSLKPEDTAVYYCNKVSAPAEFRSRGYWGQGTQVTVSS”, the “polyreactivity (PSR sort gate)” value was “high polyreactivity”.
For “QVQLVESGGGLVQAGGSLRLSCAASGRIFYRYAMGWYRQAPGKERELVAAISSGGSTYYADSVKGRFTISRDNAKNTVYLQMNSLKPEDTAVYYCAATWGRGTYYLYYYWGQGTQVTVSS”, the “polyreactivity (PSR sort gate)” value was “high polyreactivity”.
For “QVQLVESGGGLVQAGGSLRLSCAASGRIFYRYAMGWYRQAPGKERELVAAISTSGARTYYADSVKGRFTISRDNAKIYVYLQMNSLKPVDTAVYYCAATATVSKFGYWGQGTQVTVSS”, the “polyreactivity (PSR sort gate)” value was “low polyreactivity”.
For “QVQLVESGGGLVQAGGSLRLSCAASGRIFYRYAMGWYRQAPGKERELVAAITGSGGSTYYADSVKGRFTISRDNAKNTVYLQMNSLKPEDTAVYYCNAVYARYGSQGYEYWGQGTQVTVSS”, the “polyreactivity (PSR sort gate)” value was “high polyreactivity”.
With “QVQLVESGGGLVQAGGSLRLSCAASGRIFYRYAMGWYRQAPGKERELVAAITYSGGSTYYADSVKGRFTISRDNAKNTVYLQMNSLKPEDTAVYYCAAGGRGRPTTPPYGWYKLNYWGQGTQVTVSS” the “polyreactivity (PSR sort gate)” value was “high polyreactivity”.
With “QVQLVESGGGLVQAGGSLRLSCAASGRIFYRYAMGWYRQAPGKERELVAGISNSGGSTYYADSVKGRFTISRDNAKNTVYLQMNSLKPADTAVYYCATGPSYRYDIGGGRIRYYYWGQGTQVSVSS” the “polyreactivity (PSR sort gate)” value was “high polyreactivity”.
For “QVQLVESGGGLVQAGGSLRLSCAASGRIFYRYAMGWYRQAPGKERELVATISSGASTNYADSVKGRFTISRDNAKNTVYVQMNSLKPEDTADYYCARLSLRYSYVSRDYWGHGTQVTVSS”, the “polyreactivity (PSR sort gate)” value was “low polyreactivity”.
For “QVQLVESGGGLVQAGGSLRLSCAASGRIFYRYARGWYRQAPGKERELVAAITSGTSTNYADSVKGRFTFSRDNAKNTVYLQMNSLKPEDTAVYYCAKRYYCKYAEYDYWGQGTQVTVSS”, the “polyreactivity (PSR sort gate)” value was “high polyreactivity”.
For “QVQLVESGGGLVQAGGSLRLSCAASGRIFYSKVMGWYRQAPGKERELVAALSGRTGGTYYADSVKGRFTISRDNAKNTVYLQMNSLKPEDTAVYYCAARVLYYYGSGPYDYWGQGTQVTVSS”, the “polyreactivity (PSR sort gate)” value was “low polyreactivity”.
With “QVQLVESGGGLVQAGGSLRLSCAASGRIFYSNAMGWYRQAPGKERELVAAISRSGVRTYYADSVKGRFTISRDNAKNTVYLQMNSLKPEDTAVYYCAADLYWWSYYYWGQGTQVTVSS” the “polyreactivity (PSR sort gate)” value was “low polyreactivity”.
In the case of “QVQLVESGGGLVQAGGSLRLSCAASGRIFYSNAMGWYRQAPGKERELVAAISSSGGSTYYADSVKGRFTISRDNAKNTVDLQMNSLKPEDTAVYYCNAVHARYRSQGDYWGQGTQVTVSS”, the “polyreactivity (PSR sort gate)” value is reported as “low polyreactivity”.

Source: the nanobody polyreactivity screen of Harvey et al. (2022)
